Data taken from patent publication US7838288B2, “Modulators of odorant receptors” (Duke University, priority 2004, dated 2010).

T1: mouse odorant receptor OREG (Mus musculus, UniProt Q920P2)
T1 construct: expressed in transfected cells; host or cells: 293T cells (with or without co-transfected REEP1/RTP1/RTP2) and Hana3A cells (293T stably expressing mouse REEP1, RTP1, RTP2, Galpha-olf)
T1 sequence (Q920P2 1-313): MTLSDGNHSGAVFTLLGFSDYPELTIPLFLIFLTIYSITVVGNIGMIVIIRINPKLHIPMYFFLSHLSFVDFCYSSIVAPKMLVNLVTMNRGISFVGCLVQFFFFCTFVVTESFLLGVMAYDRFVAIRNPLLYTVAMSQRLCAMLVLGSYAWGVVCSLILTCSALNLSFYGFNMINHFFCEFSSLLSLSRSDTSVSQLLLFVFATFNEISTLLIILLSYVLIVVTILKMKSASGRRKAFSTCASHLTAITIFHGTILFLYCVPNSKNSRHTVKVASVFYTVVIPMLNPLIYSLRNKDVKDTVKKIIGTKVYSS

B1: REEP2: other member of the REEP family; murine SEQ ID NO: 22 (protein, listed as Mus musculus)
chain: MVSWIISRLVVLIFGTLYPAYSSYKAVKTKNVKEYVKWMMYWIVFAFFTTAETLTDIILSWFPFYFELKIAFVIWLLSPYTKGSSVLYRKFVHPTLSNKEKEIDEYITQARDKSYETMMRVGKRGLNLAANAAVTAAAKGQGVLSEKLRSFSMQDLTLIRDEDALPLQGPDGRLQPGPVGLLDTIEDLGDEPALSLRSSTSQPDPRTETSEDDLGDKAPKRTKPIKKVPRAEPPASKTLKTRPKKKSSGGGDSA
B2: RTP2: a close relative of RTP1; murine SEQ ID NO: 34, human SEQ ID NO: 38 (protein, listed as Mus musculus)
chain: MSTSLTTCEWKKVFYEKMEVAKPADSWELIIDPTLKPNELGPGWKQYLEQHASGRFHCSWCWHTWQSANVVILFHMHLDRAQRVGSVRMRVFKQLCYQCGTSRLDESSMLEENIEGLVDNLITSLREQCYDEDGGQYRIHVASRPDSGLHRSEFCEACQEGIVHWKPSEKLLEEDAAYTDASKKKGQAGFISSFFSFRWCLFWGTLCLVIVYLQFFRGRSGFL
B3: RTP4: other member of the RTP family; murine SEQ ID NO: 36 (protein, listed as Mus musculus)
chain: MLFPDDFSTWEQTFQELMQEEKPGAKWSLHLDKNIVPDGAALGWRQHQQTVGRFQCSRCCRSWTSAQVMILCHMYPDTLKSQGQARMRIFGQKCQKCFGCQFETPKFSTEIIKRILNNLVNYILQRYYGHRKIALTSNASLGEKVTLDGPHDTRNCEACSLNSHGRCALAHKVKPPRSPSPLPNSSSPSKSCPPPPQTRNTDFGNKTLQDFGNRTFQGCREPPQREIEPPLFLFLSIAAFALFSLFTR

How the values were obtained:
[1] = tested on: olfr62; test: CRE-luciferase reporter gene assay, olfr62; type: cell-based, mouse; conditions: Hana3A cells
Protocol: Four ORs (S6/79, S18, S46 and S50) previously assayed using other techniques (see, e.g., Malnic, B., et al. (1999) Cell 96, 713-723; herein incorporated by reference in its entirety) were tested against an assay panel of aliphatic alcohols, aldehydes and acids and some other odorants. Additionally, five “orphan” class I ORs (MOR23-1, MOR31-4, MOR31-6, MOR32-5 and MOR32-11) whose cognate ligands were unknown were tested. At a suprathreshold concentration of 100 uM, all these ORs were odorant selective, responding to only a small subset of the odorants tested (see FIG. 11A). This specificity was retained at lower, more physiologically relevant concentrations. Many of these ORs responded to odorants present in micromolar concentrations. The cell-surface expression of these ORs by living-cell immunofluorescence were evaluated. Some ORs (S18, MOR31-4, MOR31-6 and MOR32-5) were strongly expressed while other ORs (S6, S50, MOR23-1, MOR32-11) were weakly expressed (see FIG. 12). The present invention is not limited to a particular mechanism. Indeed, an understanding of the mechanism is not necessary to practice the present invention. […] Finally, two additional orphan class II ORs, MOR203-1 and olfr62, were tested against a panel of 139 odorants. […] Olfr62 responded to coumarine and piperonal (see FIG. 11C). […] When parental 293T cells for these ORs were used in this luciferase assay, little or no response to the odorants was observed. The present invention is not limited to a particular mechanism. Indeed, an understanding of the mechanism is not necessary to practice the present invention.
Dual-Glo system (Promega) for luciferase assay was used. CRE-Luciferase (Stratagene) was used to measure the receptor activities. Renilla luciferase driven by constitutively active SV40 promoter (pRL-SV40: Promega) was used as an internal control. Cells were plated on poly-D-lysine coated 96 well plates (BIOCOAT, Beckton Dickinson). After 8 hours (for experiments shown in FIGS. 8B and 8C) or 12 hours (for experiments shown in FIG. 8D and FIG. 11) after transfection, the medium was replaced with CD293 chemically defined medium (Invitrogen) and the plates were incubated for one hour at 37 degrees C. The medium was replaced with 50 ul of odorant solutions dissolved in CD293 and incubated for 10 hours (for experiments shown in FIGS. 8B and 8C) or 4 hours (for experiments shown in FIG. 8D and FIG. 11) at 37 degrees C. The manufacture's protocol for measuring luciferase and Renilla luciferase activities was followed. Luminescence was measured using Wallac Victor 1420 (Perkin-Elmer). Normalized luciferase activity was calculated as [Luc (N)-Luc (0)]/RL (N), where Luc (N)=Luminescent count of a certain well, Luc (0)=Luminescent count without odorant for each OR, and RL (N)=Luminescent count of Renilla Luciferase of each well. For cAMP assays, cells were plated onto 24-well plate. […]. Prism software (Graphpad) was used for data analysis. […]

[2] = tested on: MOR203-1; test: Living-cell staining of cell-surface MOR203-1; type: cell-based, mouse; conditions: accessory protein co-transfected in 293T cells
Excerpt: After hypothesizing that mammalian ORs require accessory protein(s) for functional cell surface expression, a search was instituted for detecting such molecule(s). Long-SAGE (serial analysis of gene expression) libraries (see, e.g., Saha, S., et al., (2002) Nat Biotechnol 20, 508-512; herein incorporated by reference in its entirety) were constructed from single olfactory neurons as well as neurons from the vomeronasal organ and genes were collected that are expressed by these neurons. To identify candidate genes expressed by the olfactory neurons Digital Differential Display (see, e.g., http://www, followed by, .ncbi.nlm.nih.gov/UniGene/info_ddd.shtml) was also used. Candidate genes were investigated for ORFs that encode membrane associated proteins. Genes were selected with similarities to known chaperones and cloned the cDNAs from olfactory epithelium cDNAs. The mRNA expression of each gene was verified by in situ hybridization. After isolating and subcloning into mammalian expression vectors, each cDNA together with a mouse OR (MOR203-1) tagged with a 20 N-terminal amino acids of rhodopsin (Rho-tag), was transfected into 293T cells. We measured whether these clones had any effect on the cell-surface expression of ORs by staining living cells using antibodies against the Rho-tag (see, e.g., Laird, D. W., and Molday, R. S. (1988) Invest Opthalmol Vis Sci 29, 419-428; herein incorporated by reference in its entirety). When MOR203-1 was transfected alone, antibody staining detected only faint cell-surface expression in less than 1% of the cells. A schematic diagram outlining the screening procedure utilized with the present invention is provided at FIG. 1.
293T cells were maintained in minimal essential medium containing 10% fetal bovine serum (M10). Lipofectamine 2000 (Invitrogen) was used for transfection. In live-cell staining, 16 hours after transfection, cells were incubated in M10 containing anti rhodopsin antibody, 4D2 (see, e.g., Laird, D. W., and Molday, R. S. (1988) Invest Opthalmol V is Sci 29, 419-428; herein incorporated by reference in its entirety) and 15 mM NaN3 at 4 degrees C. for 1 hour. After washing, cells were incubated with Cy3-conjugated anti mouse IgG (Jackson Immunologicals), washed and mounted. For FACS analysis, 4D2 and PE-conjugated anti mouse IgG (Jackson Immunologicals) were used to monitor the Rho tagged receptor expression. Anti HA rabbit antibodies (Sigma) and Alexa 488 conjugated anti rabbit IgG (Molecular Probes) was used to stain the HA-β2 adrenergic receptor. To establish the Hana3a cells, 1 ug/ml of puromycin was used for selection. 96 colonies were picked and assayed using luciferase assay using OREG.

[3] = target: T1, mouse odorant receptor OREG; test: CRE-luciferase reporter gene assay, OREG; type: cell-based; conditions: 293T cells; compared to OR alone or control pCI
Excerpt: Poor odorant evoked signaling activity in heterologous cell culture systems expressing ORs has been attributed to the poor cell surface expression of ORs. The identification of REEP and/or RTP allowed a direct assessment of this issue. A luciferase reporter gene assay was employed in which a cAMP responsive element (CRE) mediated luciferase gene expression (see FIG. 8A). Because OR activation leads to an increase in cAMP, activation of the mouse odorant receptor OREG by its ligand eugenol was measured in the presence and absence of REEP and/or RTP (see, e.g., Kajiya, K., et al. (2001) J Neurosci 21, 6018-6025; Touhara, K., et al., (1999) Proc Natl Acad Sci USA 96, 4040-4045; each herein incorporated by reference in their entireties). As reported previously, eugenol increased levels of OREG dependent luciferase activity (see, e.g., Katada, S., et al. (2003) Biochem Biophys Res Commun 305, 964-969; herein incorporated by reference in its entirety).
To facilitate analysis of odorant-OR interactions, 293T cell lines were established which stably express REEP1, RTP1, RTP2 and Gαolf, the G protein alpha subunit that couples to OR (see, e.g., Belluscio, L., et al. (1998) Neuron 20, 69-81; Jones, D. T., and Reed, R. R. (1989). Science 244, 790-795; each herein incorporated by reference in their entireties). To establish such cells, linearized expression vectors containing mouse REEP1, RTP1, RTP2 and Gαolf ORFs were transfected into 293T cells with PGK-Pac (puromycin resistant gene) (see, e.g., Watanabe, S., et al. (1995) Biochem Biophys Res Commun 213, 130-137; herein incorporated by reference in its entirety). […] Enhanced cell-surface expression was observed when OREG or other ORs were transfected in Hana3A cells and immunostained (see FIG. 10). […] Expression of Gαolf alone in 293T cells had little or no effect on OR activation using this assay.
Dual-Glo system (Promega) for luciferase assay was used. CRE-Luciferase (Stratagene) was used to measure the receptor activities. Renilla luciferase driven by constitutively active SV40 promoter (pRL-SV40: Promega) was used as an internal control. Cells were plated on poly-D-lysine coated 96 well plates (BIOCOAT, Beckton Dickinson). After 8 hours (for experiments shown in FIGS. 8B and 8C) or 12 hours (for experiments shown in FIG. 8D and FIG. 11) after transfection, the medium was replaced with CD293 chemically defined medium (Invitrogen) and the plates were incubated for one hour at 37 degrees C. The medium was replaced with 50 ul of odorant solutions dissolved in CD293 and incubated for 10 hours (for experiments shown in FIGS. 8B and 8C) or 4 hours (for experiments shown in FIG. 8D and FIG. 11) at 37 degrees C. The manufacture's protocol for measuring luciferase and Renilla luciferase activities was followed. Luminescence was measured using Wallac Victor 1420 (Perkin-Elmer). Normalized luciferase activity was calculated as [Luc (N)-Luc (0)]/RL (N), where Luc (N)=Luminescent count of a certain well, Luc (0)=Luminescent count without odorant for each OR, and RL (N)=Luminescent count of Renilla Luciferase of each well. For cAMP assays, cells were plated onto 24-well plate. […]. Prism software (Graphpad) was used for data analysis.

Molecule | response of olfr62 to odorant (luciferase) [1] | cell surface expression of MOR203-1 [2] | OREG activity by luciferase, accessory protein co-expressed [3]
O=C1Cc2ccccc2O1 [2-coumaranone, 2-Coumaranone] | preferred ligand |  | 
O=c1ccc2ccccc2o1 [coumarin, Coumarin] | responded |  | 
O=Cc1ccc2c(c1)OCO2 [piperonal, Piperonal] | responded |  | 
B1 |  | not observed | 
B2 |  | also enhanced cell surface expression | enhanced luciferase activities compared to OR alone
B3 |  | not observed | did not produce a significant increase
